Results as given in the DeepSol protein solubility set.

Assay: soluble on expression in E. coli; label from the status in PepcDB or PDB records

| Sequence | soluble on expression in E. coli |
| --- | --- |
| MAHHHHHHSLKEAEVLKYEAFTSSPGKGNPAGVVLQGDDYTEDEMQIIAERAGYSETSFIRKSESADLELRYFTPGHEMNLCGHATVASLYALCEKGMLESGKTYSIQTKAGILPVKISEKDGRIHITLEQASPQFKPFTGDRKKLADALGITDEDFHEDLPIVFGSTGIWTAIVPLKSLEASKKMVPDNKQFPEVLVDLPKASVHPFTFETVHPDSDLHGRHFSSPYSGTIEDPVTGTASGVMGAYMKHYGNAEQHKFIIEQGQEIGKDGKVEIEMNEAGGHVKVNMTGTAVYSETRILKIEG | not soluble |
| MAHHHHHHSLPIKIPDNLPAAKTLNEENIFFMDEDRAYHQDIRPLNIVIVNLMPTKIVTETQILRLIGNSPLQVNPTFIHTQTHKSQNTSKEHLIKFYETFEEIKNNKFDGMIVTGAPVETLSFENVDYWEELCRIFDWSVTNVTSTIHICWGAQAGLYHHYGIPKYELHEKLFGVFKHNLTERNIKLTRGFDDEFYAPHSRHTYVKREDIKKNPSLKILAESDEAGAYIVASENGKNIFVMGHAEYDGDTLNLEYIRDKNQGMNIKIPKNYFKDNDPEKGPMVTWRGHANLLFSNWLNYYVYQETPFELEG | soluble |
| MAHHHHHHVDDDDKMVSTTPAAGVLDTSVFIATESGRQLDEALIPDRVATTVVTLAELRVGVLAAATTDIRAQRLATLESVADMETLPVDDDAARMWARLRIHLAESGRRVRINDLWIAAVAASRALPVITQDDDFAALDGAASVEIIRV | soluble |
| MAHLVITIGCEYGAKGNQIGKKVAKDLGIKFYDRDTVDEIIKEVGIPKDIMEKVEEGITIAGKGAEGDVRGSFSKYADLTERAIHVQKTIIRKLSDRESCVIIGRSADYILKEHKPILRIFIYSPDEVRIENVMKSHNLSEDDAKLFITEKDKRYHKRHMALTGSNRGDRHNRDMLIDSSLLGVDGTAELIESLARKVVENESKTEAGGDK | not soluble |
| MAHSEEQAAVPCAFIRQNSGNSISLDFEPDTEYQFVEQLEERYKCAFCHSVLHNPHQTGCGHRFCQQCIRSLRELNSVPICPVDKEVIKPQEVFKDNCCKREVLNLHVYCKNAPGCNARIILGRFQDHLQHCSFQAVPCPNESCREAMLRKDVKEHLSAYCRFREEKCLYCKRDIVVTNLQDHEENSCPAYPVSCPNRCVQTIPRARVNEHLTVCPEAEQDCPFKHYGCTVKGKRGNLLEHERAALQDHMLLVLEKNYQLEQRISDLYQSLEQKESKIQQLAETVKKFEKELKQFTQMFGRNGTFLSNVQALTSHTDKSAWLEAQVRQLLQIVNQQPSRLDLRSLVDAVDSVKQRITQLEASDQRLVLLEGETSKHDAHINIHKAQLNKNEERFKQLEGACYSGKLIWKVTDYRVKKREAVEGHTVSVFSQPFYTSRCGYRLCARAYLNGDGSGKGTHLSLYFVVMRGEFDSLLQWPFRQRVTLMLLDQSGKKNHIVETFKADPNSSSFKRPDGEMNIASGCPRFVSHSTLENSKNTYIKDDTLFLKVAVDLTDLEDL | soluble |
| MAIFRDYSINPTEHDRTIGDRRRHRELVEKAIKDNLADIVSEESIIGESKSKKIKIPIRGLKEYKFLYGNNSSSVGSGTGNEKKGDIIGKEQMGNGSKGKGKGAGNSEGEDIYETEVTIEEVFSYLLEDLNLPNLDKKKYSEIVTDSSKKKAGYQKYGIRPRLAKKRTVIEKIKREQSRKRAIKELGKDDKVERLPFSEEDLRYHRIKEKPKKECNAAIMCVMDCSGSMDSTKKYLARSFFFILSKFIRMKYVNVEIAFISHSTVGREVTETEFFHKVESGGTYISSGLNTAMDIIKERFNPATWNIYGFYVSDGDNFTEDDERAIKSMRKFCEIANMIGYAEILPYSYSGTMKYKFDNYVKDKNFISSTIRNKEDLWPVLKKMLIKELKELEHHHHHH | soluble |
| MAIGKKVSKKTPLLLAADSHKNAAKMPCFLLQAHRIANTVIAGWHGQRKRGNGENFWQFRPYVEGESITRIDWRRSARDGHTYLREHEWEKTQTVWIWPDQSASMHYCSCFSQTSKDNYAIILALTLATLLARSGENIAIPTLMPPTMAPNVVERMALALVNRHTENPFPDFSTITRFSHVIIMSDFLDSPEKIIQNLTVLSAKQITVHLIEVADPAEEHFPYAGHTEFFDPETKEKRILGKAENSREHYCKLYQARRQELTNFCTRQGWTYHVSKTDRPLTEVILRLANKIGISPSHNRRSL | not soluble |
| MAIKNEIKNCLIMSVNPSYPLPLLCQYIPRYHPQMPTCPLFESKSIITPVFYFNCKRMDRSIDRRLCGHCHQSIGSEALVAMNRLWHPDHFTCSSCKRPIKQTFQAADNHAYCVQCFAQKYNPKCAGCMETLVDTCLLALDRHWHPRCFTCSSCNRPLPNGEFYLVDDKPYDLDCHWAKRLEKREHMERGER | not soluble |
| MAISRELVDPNSSPREIEVSEPREVGITELVLRDAHQSLMATRMAMEDMVGACADIDAAGYWSVECWGGTTYDSCIRFLNEDPWERLRTFRKLMPNSRLQMLLRGQNLLGYRHYNDEVVDRFVDKSAENGMDVFRVFDAMNDPRNMAHAMAAVKKAGKHAQGTICYTISPVHTVEGYVKLAGQLLDMGADSIALKDMAALLKPQPAYDIIKAIKDTYGQKTQINLHCHSTTGVTEVSLMKAIEAGVDVVDTAISSMSLGPGHNPTESVAEMLEGTGYTTNLDYDRLHKIRDHFKAIRPKYKKFESKTLVDTSIFKSQIPGGMLSNMESQLRAQGAEDKMDEVMAEVPRVRKAAGFPPLVTPSSQIVGTQAVFNVMMGEYKRMTGEFADIMLGYYGASPADRDPKVVKLAEEQSGKKPITQRPADLLPPEWEKQSKEAATLKGFNGTDEDVLTYALFPQVAPVFFEHRAEGPHSVALTDAQLKAEAEGDEKSLAVAGPVTYNVNVGGTVREVTVQQATRASQPELAPEDPEDLEHHHHHH | soluble |
| MAITAKNAQLYGLDLELGLETGLAADVDNDSMSGLVLVELLSPYHQLETRFKLESQTALAFQAMADSAAKDGIKLAICSAYRPFDRQLAIWNAKASGKRVVLDINEQPVDITPLSESELVDLILLWSALPGASRHHWGTDIDVFDAEKIEVKSLRLVEAEYRDGGPCAQLHQWLVANAKDFGFYFPFQRGQSAVSAEPWHISYFPVSQILLPQFEVQALTQIIAHSDMLLKDAVLARLPELVAEYVHRIAQP | soluble |
| MAITVSIELNRDLEIPASYDEVFDLLADVPKSASHFPKVDKLVDLGNNAYRWEMEKVGVDKHAIQSVYACTYHADKEAGKITWSPIKGEGNGVVSGSWTLSAKGDNATAVKFQTSAELTVPLPSLLKLAISPVIKHEFNSLVDTYMANLKKAFLEHHHHHH | soluble |
| MAKEINLTGEEVVALAAKYMNETDAAFVKKALDYATAAHFYQVRKSGEPYIVHPIQVAGILADLHLDAVTVACGFLHDVVEDTDITLDNIEFDFGKDVRDIVDGVTKLGKVEYKSHEEQLAENHRKMLMAMSKDIRVILVKLADRLHNMRTLKHLRKDKQERISRETMEIYAPLAHRLGISRIKWELEDLAFRYLNETEFYKISHMMNEKRREREALVDDIVTKIKSYTTEQGLFGDVYGRPKHIYSIYRKMRDKKKRFDQIFDLIAIRCVMETQSDVYAMVGYIHELWRPMPGRFKDYIAAPKANGYQSIHTTVYGPKGPIEIQIRTKEMHQVAEYGVAAHWAYKKGVRGKVNQAEQKVGMNWIKELVELQDASNGDAVDFVDSLEHHHHHH | soluble |
| MAKFNVENEHVEVEIEKLYKFSPELVYEAWTKKDLLKQWFMTSARTNKEIEADVKEGGKYRIVDQQRNGKVNVIEGIYESLVMDEYVKMTIGMPGLSETQDVIEVEFFERETGGTQMLFYYRSLVEKERRFTNLEYKQKKKEYHDAMVHGFELMFDKMYHVIETSTQQ | soluble |
| MAKKRSKLEIIQAILEACKSGSPKTRIMYGANLSYALTGRYIKMLMDLEIIRQEGKQYMLTKKGEELLEDIRKFNEMRKNMDQLKEKINSVLSIRQ | soluble |
| MAKKTSSKGKLPPGPRPLPLLGNLLQMDRRGLLKSFLRFREKYGDVFTVHLGPRPVVMLCGVEAIREALVDKAEAFSGRGKIAMVDPFFRGYGVIFANGNRWKVLRRFSVTTMRDFGMGKRSVEERIQEEAQCLIEELRKSKGALMDPTFLFQSITANIICSIVFGKRFHYQDQEFLKMLNLFYQTFSLISSVFGQLFELFSGFLKHFPGAHRQVYKNLQEINAYIGHSVEKHRETLDPSAPRDLIDTYLLHMEKEKSNAHSEFSHQNLNLNTLSLFFAGTETTSTTLRYGFLLMLKYPHVAERVYREIEQVIGPHRPPELHDRAKMPYTEAVIYEIQRFSDLLPMGVPHIVTQHTSFRGYIIPKDTEVFLILSTALHDPHYFEKPDAFNPDHFLDANGALKKTEAFIPFSLGKRICLGEGIARAELFLFFTTILQNFSMASPVAPEDIDLTPQECGVGKIPPTYQIRFLPRHHHH | soluble |
| MAKRGRKRKVSKDEENTTPEPEMKKKADEKVVELDEKDWMPSAALEFFENENFKEIVENLSHLDNSVTLVGPFRKLRGESDADGTDLIMLDREMTDLPEMQTFMKCSHGRYAFWRDKPNDKKPVIVFMDLKTIPDLSVVGNEIRHAILDFCTRCSKCIDCSAKSKAANSKIQSFFTPSKISSEVKEVLKHREKTTVRGISGPGMLIDVVPTGNSGKKNKKNERTGYRDLSKNAYCINIEHLVRSLRLCQTKEQEEKVLDFVYGLMNEINICNDEGDFGNGLELGHILFLANMKAVADPMMITLHIAYKNLHRPDFAKILDLTLSLRDQQEEAT | soluble |
| MAKSFNQAASELTDIFPNISLTGFDGVNYPVTVNCPMHGNVRYSTFNALIKSKYGCPECAKMSKTQTPPNVGKPLLILDTTTNETLTFPSVTAAGAALGVHFQQINHRLKGRTSPDNLISNRYKVLGYDR | not soluble |
| MAKSPVEVNLIPIEATPENFAEYGQVIEASRDGAGFGPHDAQLDLSRGTPRLYILRLKETPLGFFKITHHAKVTQCLGSIGGDVWYMGVAKPSLIEDDDDDGRSVDTVKSKSGHLYIPPEVEEIRVFRFSGPKFVKLHRGTWHAGPLFSGSSFMDFYNLELSNTNVSEEWF | soluble |
| MAKSSSLNVRVVEGRALPAKDVSGSSDPYCLVKVDDEVVARTATVWRSLGPFWGEEYTVHLPLDFHQLAFYVLDEDTVGHDDIIGKISLSREAITADPRGIDSWINLSRVDPDAEVQGEICLSVQMLEDGQGRCLRCHVLQARDLAPRDISGTSDPFARVFWGSQSLETSTIKKTRFPHWDEVLELREMPGAPSPLRVELWDWDMVGKNDFLGMVEFSPKTLQQKPPKGWFRLLPFPRAEEDSGGNLGALRVKVRLIEDRVLPSQCYQPLMELLMESVQGPAEEDTASPLALLEELTLGDCRQDLATKLVKLFLGRGLAGHFLDYLTRREVARTMDPNTLFRSNSLASKSMEQFMKLVGMPYLHEVLKPVISRVFEEKKYMELDPCKMDLGRTRRISFKGALSEEQMRETSLGLLTGYLGPIVDAIVGSVGRCPPAMRLAFKQLHRRVEERFPQAEHQQDVKYLAISGFLFLRFFAPAILTPKLFDLRDQHADPQTSRSLLLLAKAVQSIGNLGQQLGQGKELWMAPLHPFLLQCVSRVRDFLDRLVDVDGDEEAGVPARALFPPSAIVREGYLLKRKEEPAGLATRFAFKKRYVWLSGETLSFSKSPEWQMCHSIPVSHIRAVERVDEGAFQLPHVMQVVTQDGTGALHTTYLQCKNVNELNQWLSALRKASAPNPNKLAACHPGAFRSARWTCCLQAERSAAGCSRTHSAVTLGDWSDPLDPDAEAQTVYRQLLLGRDQLRLKLLEDSNMDTTLEADTGACPEVLARQRAATARLLEVLADLDRAHEEFQQQERGKAALGPLGP | soluble |
| MAKTYGLIGLYSRIVNKIEDSKKYLSLAIEMNIQSGNHKSLFVNELRLAHTYQWETNYHKSNKLFKKLKEQSESDTEHSNYLDSVYQHYGKNLFDQSEYQLALKYVKKALRIRVEKGNKELIDSTEYAINICNEKIKQIKEMAGDPLEHHHHHH | not soluble |
| MAKVIFDENRCKGCKLCTTVCPKKIVVMNEDKLNQKGFHPAGVVDMDKCIGCAFCATICPDCVIEVYK | not soluble |
